From patent US20220177589A1 (OXFORD UNIVERSITY INNOVATION, published 2022)
Substitutions are numbered along the chain they refer to.

T1: full length cynomolgus BTLA expressed in a Jurkat T cell line (cynomolgus monkey, UniProt Q7Z6A9 31-289 (human entry))
T1 chain: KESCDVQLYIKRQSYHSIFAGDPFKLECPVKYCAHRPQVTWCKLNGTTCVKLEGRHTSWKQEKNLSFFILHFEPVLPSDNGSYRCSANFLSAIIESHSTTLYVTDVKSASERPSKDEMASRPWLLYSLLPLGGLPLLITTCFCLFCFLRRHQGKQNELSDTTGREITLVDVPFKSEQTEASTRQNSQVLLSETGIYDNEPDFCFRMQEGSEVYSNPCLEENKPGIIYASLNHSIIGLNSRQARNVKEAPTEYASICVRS

B1: 11.5.1 (antibody, IgG1, V domains shown)
VH: EVQLQESGPSLVKPSQTLSLTCSVTGDSITSAYWNWIRKFPGNKLEYMGYISYSGSTYFNPSLKSRISITRNTSKNQYYLQLNSVTTEDTATYYCARSHYYGYYFDYWGHGTTLTVSS
VL: DIVLTQSPASLAVSLGQRATISCRASETIDSYGDSLMHWYQQKAGQPPKLLIYRASNLESGIPARFSGSGSRTDFTLTINPVEADDVATYYCQQTDEDPYTFGGGTKLEIK
B2: 831 (antibody, V domains shown)
VH: DVQLQESGPDLVKPSQSLSVTCTVTGYSITSGYSWHWIRQFPGNKLEWMGYIHYSGSTNYNPSLKSRISITRDTSKNQFFLQLSSVTTEDTATYYCASGPHRYDGVWFAYWGQGTLVTVSS
VL: EIVLTQSPTTMAASPGEKITITCSASSSISSNYLHWYQQKPGFSPKLLIYRTSNLASGVPARFSGSGSGTSYSLTIGTMEAEDVATYYCQQGTNIPLTFGAGTKLEIK
B3: 6.2 (antibody, IgG1, V domains shown)
VH: EVKLVESGGGLVKPGGSLKLSCAASGFTLSSYGMSWVRQIPEKRLEWVASIRSDGNTYYPDSVKGRFIISRDNARNILYLQMSSLRSEDTAMYYCTRGGYYGSSPYYWGQGTTLTVSS
VL: DIVMSQSPSSLPVSVGEKISMTCKSSQSLLYSSNQKNYLAWYQQKPGQSPKLLIYWASTRDSGVPDRFIGSGSGTDFTLTINSVKAEDLAVYYCQQYYNYLTFGAGTKLELK
B4: 16H2 (antibody, IgG1, V domains shown)
VH: EVQLQQSGPELVQPGASVKISCKASGYTFTDYYMIWVKQSHGKSLEWIGNINPNNGGTTYNQKFKGKATLTVDKSSSTAYMGLPSLTSEDSAVYYCARGGLRPLYFDYWGQGTTLTVSS
VL: NIVMTQSPKSMSMSVGERVTLSCKASENVDTYVSWYQQKPEQSPKLLIYGASNRYTGVPDRFTGSGSATDFTLTISSVQAEDLADYHCGQSYSYPLTFGAGTKLELI
B5: 14D4 (antibody, IgG1, V domains shown)
VH: QVQLQQPGAELVKPRASVKLSCKASGYTFTSYWMHWVKQRPGQGLEWIGMIHPNNGIPNYNEKFKSKATLTVDKSSTTAYMQLSSLTSEDSAVYHCAREGYYGSEGYFDVWGTGTTVTVSS
VL: QIVLTQSPAIMSASPGEKVTMTCSASSSISYIHWYQQKPGTSPKRWIYDTSKLASGVPARFSGSGSGTSYSLTISSMEAEDAATYYCHQRSTYPYTFGGGTKLEIK
B6: 2.8.6 (antibody, IgG1, V domains shown)
VH: QVQLKESGPGLVAPSQSLSITCTVSGFSLTTYGVHWVRQSPGKGLEWLGVMWPGGRTSYNPAPMSRLSISKDNSKSQVFLKMNSLQTDDTAMYYCVRGDYEYDYYAMDYWGQGTSVTVSS
VL: QIVLSQSPAILSASPGEKVTMTCRASSSVSYMHWYQQKPGSSPKPWIYATSNLASGVPARFSGSGSGTSYSLTISRMEAEDAATYYCHQWSSNPYTFGGGTKLEIK
B7: 24H7 (antibody, IgG1, V domains shown)
VH: QVQLQQSGAELVRPGASVTLSCKASGYTFTDYEIHWVKQTLVHGLEWIGPIDPDTGNTAYNQNLKGKAILTADKSSSTAYMELRSLTSEDSAVYYCTRGGYDSDWGFAYWGQGTLVTVSA
VL: DIVMTQATPSVPVTPGESVSISCRSSKSLLHSNGNTFLFWFLQRPGQSPQLLIYRMSDLASGVPDRFSGSGSGTAFTLRISRVEAEDVGIYYCMQHLEYPFTFGSGTKLEIK
B8: 4B1 (antibody, IgG1, V domains shown)
VH: QVQLQQSGAELARPGASVRLSCKASGYTFTSYGLIWLKQRTGQGLEWIGEIYPRSGSTYYNEWFKGKATLTADKSSNTAFMELRSLTSEDSAVYFCARRRGTGDGFDYWGQGTILTVSS
VL: DIQMTQTTSSLSASLGDRVTISCSASQGISNYLNWYQQKPDGTVKLLIYYTSSLHSGVPSRFSGSGSGTDYSLTISNLEPEDIATYYCQQYIELPFTFGSGTKLEIK
B9: 8B4 (antibody, IgG1, V domains shown)
VH: QVQLQQSGAELARPGASVKLPCKASGYTFTSYGISWVKQRTGQGLEWIGEIYPRSGTTYYNEKFKGKATLTADKSSSTAYMELRSLTSEDSAVYFCARRISSGSGVDYWGQGTTLTVSS
VL: B8 VL with I92S, F96W, S100G
B10: 21C7 (antibody, IgG1, V domains shown)
VH: QIQLQQSGPELVKPGASVKISCKASGYAFSSSWMNWVKKRPGKGLEWIGRIYPGDGDANYNGKFKGKATLTADKSSSTAYMQLSSLTSEDSAVYFCAGEGHYYGSGYRWYLDVWGTGTTVTVSS
VL: DIQMTQSPASLSVSVGETVTITCRASENIYSNLAWYQQKQGKSPQLLVYAATNLADGVPSRFSGSGSGTQYSLKINSLQSEDFGSYYCQHFRGAPFTFGSGTKLEIK

Assays:
Test in all cases: cell-based or functional assay
[1] = target: T2, chimeric BTLA of humanised-BTLA mice (human extracellular region, murine transmembrane and signaling … (human; mouse, UniProt Q7TSA3 184-306, limits assumed)
T2 sequence (Q7TSA3 other isoform, or with tags, fused parts or gaps mutant limits assumed): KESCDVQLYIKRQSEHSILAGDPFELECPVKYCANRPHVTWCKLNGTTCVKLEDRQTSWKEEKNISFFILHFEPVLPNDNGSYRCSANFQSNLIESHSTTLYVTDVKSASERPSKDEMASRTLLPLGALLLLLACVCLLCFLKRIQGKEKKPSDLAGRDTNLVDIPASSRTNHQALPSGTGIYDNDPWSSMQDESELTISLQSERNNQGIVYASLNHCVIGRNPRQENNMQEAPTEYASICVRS

[2] = target: T1, full length cynomolgus BTLA expressed …
[3] = target: T2, chimeric BTLA of humanised-BTLA mice …; remark: listed apart in the source
[4] = target: full length human BTLA expressed in a Jurkat T cell line (human, UniProt Q7Z6A9 31-289)

Row | Binder | IC50, inhibition of CD4 T cell proliferation in a mixed lymphocyte reaction [1] | IC50, inhibition of NFkB-GFP reporter in BTLA transfected Jurkat cells [2] | AntiCD3/CD28 (CD4 T cell proliferation) repeat 1, % inhibition [3] | AntiCD3/CD28 (CD4 T cell proliferation) repeat 2, % inhibition [3] | AntiCD3/CD28 (CD69+ CD4 T cells) repeat 1, % inhibition [3] | AntiCD3/CD28 (CD69+ CD4 T cells) repeat 2, % inhibition [3] | MLR (CD4 T cell proliferation) repeat 1, % inhibition [3] | MLR (CD4 T cell proliferation) repeat 2, % inhibition [3] | T cell reporter (NFkB signaling), % inhibition [4]
1 | B1 | 0.016 nM | 0.14 nM | 21% | 28% | 50% | 47% | 23% | 18% | 
2 | B2 |  |  | 10% | 8% | 50% | 53% | 25% | 34% | 24%
3 | B3 |  |  | 19% | 21% | 53% | 61% | 31% | 35% | 26%
4 | B4 |  |  | 11% | 23% | 51% | 60% | 40% | 26% | 29%
5 | B5 |  |  | 24% | 29% | 43% | 52% | 39% | 26% | 16%
6 | B6 | 0.029 nM | 0.22 nM | 23% | 35% | 58% | 67% | 30% | 36% | 
7 | B7 |  |  | 13% | 23% | 52% | 44% | 23% | 31% | 22%
8 | B8 |  |  | 14% | 18% | 47% | 41% | 33% | 30% | 23%
9 | B9 |  |  | 20% | 4% | 51% | 47% | 33% | 23% | 24%
10 | B10 |  |  | 10% | -4% | 39% | 35% | 8% | 17% | 23%
